The record followed here is PMC6048507.

The target in experiment [1] is mavirus major capsid protein, full-length (flMCP), purified capsomer (mavirus).
Experiment [2] shares this target. The experiment is described as follows: crystal structure.
Experiment [3] has as its target mavirus major capsid protein truncated at the C terminus (MCPΔC, res. 1–516), purified capsomer (mavirus).
Experiment [4] shares this target. Nature of the experiment: crystal structure.
The target of experiment [5] is mavirus cysteine protease (MVP) (mavirus).
Experiment [6] deals with mavirus penton protein (minor capsid protein, MV17), purified (mavirus).
The target is the same in experiment [7]. Nature of the experiment: crystal structure.

Like-named read-outs stand apart in the source and are kept apart here.

Consider “mavirus major capsid protein, full-length (flMCP), purified capsomer (natural protein)”, for which the stoichiometry N in experiment [1] and in experiment [2] was 3 in each case. For the substance “mavirus major capsid protein truncated at the C terminus (MCPΔC, res. 1–516), purified capsomer (domain or fragment)”, the stoichiometry N in experiment [3] and in experiment [4] was 3 each time. In experiment [5], “mavirus cysteine protease (MVP) (enzyme)” registered a stoichiometry N of 2.

With “mavirus penton protein (minor capsid protein, MV17), purified (natural protein)”, the stoichiometry N in experiment [6] and in experiment [7] was 5 each time.

One may read the stoichiometry N as a count of units in the complex or per binding partner.
